Measured values published in publication PMC6796926, “Pioneering function of Isl1 in the epigenetic control of cardiomyocyte cell fate”.

T1: Isl1 homeodomain (Isl1-HD) (UniProt P61372 181-240)
T1 sequence: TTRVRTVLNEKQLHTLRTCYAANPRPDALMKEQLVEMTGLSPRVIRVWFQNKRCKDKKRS

B1: specific competitor (Insulin enhancer) (dsDNA)
DNA 1: CCCTTGTTAAGACTCTAATTACCCTAG
DNA 2: CTAGGGTAATTAGAGTCTTAACAAGGG
B2: nonspecific competitor (NS) (dsDNA)
DNA 1: CAAGCAAAACAAACCA
DNA 2: TGGTTTGTTTTGCTTG
B3: free Ttn DNA (dsDNA)
DNA 1: CGGTGTCTGCTATCACTCAGTTTCATCCCTTTCTTCCCAAATGGCCAGTTTCATGTTGTGTATCTTGACAGTGACTCCCAACCAGAGACTCCTGTTAAGGGAACTTGTCAGTCATAATAGACAATAAGTGAACTTCTTGTTCGGGGTGCTCAATAATTTGCT
DNA 2: AGCAAATTATTGAGCACCCCGAACAAGAAGTTCACTTATTGTCTATTATGACTGACAAGTTCCCTTAACAGGAGTCTCTGGTTGGGAGTCACTGTCAAGATACACAACATGAAACTGGCCATTTGGGAAGAAAGGGATGAAACTGAGTGATAGCAGACACCG

Key:
[1] = molecular target: T1, Isl1 homeodomain (Isl1-HD); test: competition; 80x excess vs free and nucleosomal Ttn DNA, 0.5 uM Isl1; 40 mM KCl, 15 mM HEPES pH 8.0, 1 mM EDTA, 0.5 mM DTT, 2 mM MgCl2, 5% glycerol, 10 ng/ul poly dI/dC, 0.1 mg/ml BSA, 30 min, RT; 4% PAGE in 0.5x TBE; conditions: protein: recombinant; tags: 6xHis; blunt
[2] = molecular target: T1, Isl1 homeodomain (Isl1-HD); test: EMSA; 0-1 uM Isl1; 40 mM KCl, 15 mM HEPES pH 8.0, 1 mM EDTA, 0.5 mM DTT, 2 mM MgCl2, 5% glycerol, 10 ng/ul poly dI/dC, 0.1 mg/ml BSA, 30 min, RT; 4% PAGE in 0.5x TBE; conditions: protein: recombinant; tags: 6xHis; label: biotin (PCR primers); blunt

Binder | binding result [1] | binding result [2]
B1 | binds | –
B2 | no binding | –
B3 | – | binds
